Reference: patent US7691590B2, “Reducing myelin-mediated inhibition of axon regeneration” (Children's Medical Center Corporation, priority 2001, dated 2010)
Where “and” joins values, the source holds several entries; their conditions need not be identical. Equal values may be shown once.

Assays:
[1] = test system: growth cones of E13 chick DRG neurons; assay: Growth cone collapse assay with E13 chick DRG explants; assay type: cell-based; details: for EC50: E13 chick DRG growth cones, read-out: effective concentration for half-maximal response (EC50), growth cone collapse; for growth cone collapsing activity after PI-PLC treatment of the neurons: PI-PLC pre-incubation
From the text: OMgp is a Physiological Nogo Receptor Ligand and Inhibitor of Neurite Outgrowth. To examine whether any GPI-linked proteins in CNS myelin may act as inhibitors of neurite outgrowth, we treated purified bovine white matter myelin with phosphatidylinositol-specific phospholipase C (PI-PLC) and examined the released proteins for their ability to alter growth cone morphology in a growth cone collapse assay using embryonic day 13 chick dorsal root ganglia (E13 DRG)^6,9,10. […] Since the size of this band was similar to that of a previously identified CNS myelin protein OMgp^11,12, we used antibodies specific for OMgp to detect enrichment of cleaved OMgp in the PI-PLC supernatants by Western blot. […] Next, we examined whether purified recombinant OMgp protein was able to act as an inhibitor of neurite outgrowth in two well-established in vitro assays, the growth cone collapse^6,9,13 and the neurite outgrowth assays^3-7,9.
Growth Cone Collapse and Neurite Outgrowth Assays. Chick E13 DRG and E7 retina were isolated and cultured as described previously^9,10. DRG explants cultured overnight were used for growth cone collapse assays. To assess the effects of PI-PLC treatment, cultures were pre-incubated with 2 U/ml PI-PLC for 30 min prior to treatment with individual test proteins for an additional 30 min. To express NgR in E7 retinal ganglion neurons, we infected the explants with recombinant HSV for 24 hr. After incubation with each test protein for 30 min, retinal explants were fixed in 4% paraformaldehyde and 15% sucrose. Infection of HSV-LacZ was detected by a standard b-galatosidase staining protocol^20. FLAG-NgR expression was detected by incubating paraformaldehyde-fixed cultures with M2 anti-FLAG antibody (Sigma). Bound antibody was detected by incubation with AP-conjugated […] IgG second antibody and reaction with NBT and BCIP (Vector labs). Growth cone collapse was quantified only in those positively stained for b-galatosidase or immunoreactive for the FLAG epitope.

[2] = molecular target: T1, GST-NgR (extracellular domain of NgR) (Homo sapiens, UniProt Q9BZR6); assay: Co-precipitation with GST-NgR on glutathione-Agarose beads; assay type: binding; details: for competition for binding to NgR: cell surface binding and co-precipitation assay
T1 construct: a GST fusion protein containing the entire extracellular domain of NgR (GST-NgR); made in house; OM-his made in COS-7 cells
T1 sequence (Q9BZR6 27-447 limits assumed): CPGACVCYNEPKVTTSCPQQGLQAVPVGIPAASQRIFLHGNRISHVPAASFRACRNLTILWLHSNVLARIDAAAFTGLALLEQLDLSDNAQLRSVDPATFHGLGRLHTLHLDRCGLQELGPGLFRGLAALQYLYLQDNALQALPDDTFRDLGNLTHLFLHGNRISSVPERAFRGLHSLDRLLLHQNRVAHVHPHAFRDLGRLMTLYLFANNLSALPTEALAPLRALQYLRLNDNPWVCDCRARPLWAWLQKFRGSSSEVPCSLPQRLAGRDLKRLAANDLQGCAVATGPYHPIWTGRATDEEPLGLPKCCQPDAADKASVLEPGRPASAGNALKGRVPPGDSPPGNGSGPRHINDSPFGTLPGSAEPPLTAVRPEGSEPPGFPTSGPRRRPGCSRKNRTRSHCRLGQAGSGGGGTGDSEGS
Method: To investigate the mechanisms by which OMgp inhibits neurite outgrowth, we used an expression cloning strategy^9,13,16 to identify cell surface OMgp-binding proteins. […] From pools of an adult human brain cDNA expression library, we isolated two cDNAs that encoded OMgp-binding proteins. […] We then established a CHO cell line stably expressing the NgR and determined the binding affinity of expressed NgR for AP-OM as 5 nM, similar to what had been determined for Nogo-66 (7 nM, ref. 9). […] We next performed co-precipitation experiments by incubating GST or a GST fusion protein containing the entire extracellular domain of NgR (GST-NgR) with OM-his alone or in the presence of AP or AP-66 protein. […] We next determined which domain(s) of OMgp was responsible for binding to NgR. Like NgR, OMgp is also a GPI-linked protein containing a leucine-rich repeat (LRR) domain. […] In addition, the C-terminal domain with serine-threonine repeats (AP-S/T) alone was also able to bind, though less strongly, to NgR expressing cells.
In co-precipitation experiments, 2 mg GST or GST-NgR were first immobilized to glutathione-Agarose beads and the beads were further incubated with or without 1 mg OM-his in the presence of 2 mg of AP or AP-66 at 4° C. for 2 hr. After extensive washing, the bound proteins were resolved with SDS-PAGE and detected by Western blotting.

[3] = test system: cerebellar granule neurons (CGN); assay: Neurite outgrowth assay with cerebellar granule neurons; assay type: cell-based; details: P7-9 rat CGN
From the text: To deplete OMgp, myelin was first solublized with 1% octylglucoside and the resultant extract was passed twice through columns with PNA-Agarose (Vector Laboratories) or control Agarose beads as described previously^12. The OMgp-enriched fraction was obtained by eluting the PNA-Agarose column with buffer containing 0.5 M D-galactose. As a significant portion of OMgp co-fractionated with Nogo-A in anion exchange columns^12, we enriched MAG or Nogo-A from myelin by applying the flow-through fractions from the PNA-Agarose columns onto a Q-Sepharose (Sigma) column^15. The column was then eluted stepwise with equal amount of buffers containing 0.15 M (MAG-enriched), 0.45 M (Nogo-A enriched), or 1.0 M NaCl^15. Aliquots of individual fractions were tested for their inhibitory activity in the neurite outgrowth assay as described previously^15,16,21.
Neurite outgrowth assays were performed as described previously^15,21. Briefly, P7-9 rat CGNs were dissected and then plated at a density of 1×10^5 cells per well. The cells were cultured for 24 hr prior to fixation with 4% paraformaldehyde and staining with a neuronal specific anti-b-tubulin antibody (TuJ-1, Covance). Quantification of neurite length and statistical analysis were performed as described previously^22.

[4] = test system: chick E7 retinal ganglion neurons (RGN) expressing human NgR; assay: Growth cone collapse in E7 retinal ganglion neurons expressing FLAG-NgR (HSV infection); assay type: cell-based; details: E7 RGN infected with HSV FLAG-NgR
From the text: To assess whether NgR is capable of mediating OMgp-induced inhibitory activity on neurite outgrowth, we next took a gain-of-function approach to examine whether expression of NgR was able to confer OMgp-responsiveness to otherwise insensitive neurons. It has been shown previously that chick E7 retinal ganglion neurons (RGN) are insensitive to Nogo-66, but that introduction of exogenous NgR in these neurons rendered their growth cones to be responsive to Nogo-66^9. Using the same strategy, we made a recombinant herpes simplex virus (HSV) that drives expression of a FLAG-tagged full-length human NgR (FLAG-NgR) in infected neurons. Upon infection, 80% of the E7 RGNs expressed the FLAG-NgR protein as assessed by immunocytochemistry with an anti-FLAG antibody. […] Furthermore, the growth cones of NgR-expressing axons also become collapsible by OMgp.
Growth Cone Collapse and Neurite Outgrowth Assays. […] Infection of HSV-LacZ was detected by a standard b-galatosidase staining protocol^20. FLAG-NgR expression was detected by incubating paraformaldehyde-fixed cultures with M2 anti-FLAG antibody (Sigma). Bound antibody was detected by incubation with AP-conjugated […] IgG second antibody and reaction with NBT and BCIP (Vector labs). Growth cone collapse was quantified only in those positively stained for b-galatosidase or immunoreactive for the FLAG epitope.

B1: AP-66: alkaline phosphatase fusion protein containing the 66 amino acid extracellular domain of Nogo-A (protein)
chain: RIYKGVIQAIQKSDEGHPFRAYLESEVAISEELVQKYSNSALGHVNCTIKELRRLFLVDDLVDSLK
modifications: also: fused to alkaline phosphatase
notes: alkaline phosphatase fusion protein containing the 66 amino acid extracellular domain of Nogo-A
EC50 [1]: 2.3 nM | competition for binding to NgR [2]: competed for binding to NgR

B2: OM-his: purified recombinant polyhistidine-tagged mouse OMgp protein (amino acids 23-392) expressed in COS-7 cells (protein)
chain: LCICPLQCTCTERHRHVDCSGRNLTTLPPGLQENIIHLNLSYNHFTDLHNQLTPYTNLRTLDISNNRLESLPAQLPRSLWNMSAANNNIKLLDKSDTAYQWNLKYLDVSKNMLEKVVLIKNTLRSLEVLNLSSNKLWTVPTNMPSKLHIVDLSNNSLTQILPGTLINLTNLTHLYLHNNKFTFIPEQSFDQLLQLQEITLHNNRWSCDHKQNITYLLKWVMETKAHVIGTPCSKQVSSLKEQSMYPTPPGFTSSLFTMSEMQTVDTINSLSMVTQPKVTKTPKQYRGKETTFGVTLSKDTTFSSTDRAVVAYPEDTPTEMTNSHEAAAATLTIHLQDGMSSNASLTSATKSPPSPVTLSIARGMPNNFSE
modifications: left off: small tags and cut ends
notes: purified recombinant polyhistidine-tagged mouse OMgp protein (amino acids 23-392) expressed in COS-7 cells
growth cone collapsing activity ([1]; E13 chick DRG): induced the collapse of growth cones | EC50 [1]: ~1.5 nM and 1.5 nM | inhibition of neurite outgrowth [3]: inhibited neurite outgrowth | competition for binding to NgR [2]: competed for binding to NgR | direct binding to GST-NgR ([2]; co-precipitation, control GST did not bind): bound

B3: OMgp: oligodendrocyte-myelin glycoprotein, GPI-anchored CNS myelin protein (protein, UniProt P23515 25-417, looked up)
Oligodendrocyte-myelin …: ICPLQCICTERHRHVDCSGRNLSTLPSGLQENIIHLNLSYNHFTDLHNQLTQYTNLRTLDISNNRLESLPAHLPRSLWNMSAANNNIKLLDKSDTAYQWNLKYLDVSKNMLEKVVLIKNTLRSLEVLNLSSNKLWTVPTNMPSKLHIVDLSNNSLTQILPGTLINLTNLTHLYLHNNKFTFIPDQSFDQLFQLQEITLYNNRWSCDHKQNITYLLKWMMETKAHVIGTPCSTQISSLKEHNMYPTPSGFTSSLFTVSGMQTVDTINSLSVVTQPKVTKIPKQYRTKETTFGATLSKDTTFTSTDKAFVPYPEDTSTETINSHEAAAATLTIHLQDGMVTNTSLTSSTKSSPTPMTLSITSGMPNNFSEMPQQSTTLNLWREETTTNVKTPLPS
growth cone collapsing activity after PI-PLC treatment of the neurons ([1]; E13 chick DRG): abolished | growth cone collapse response in NgR-expressing neurons [4]: collapsible

B4: Semaphorin 3A: control growth cone collapsing protein acting through neuropilin-1 and plexin receptors (protein, UniProt Q14563 21-771, looked up)
Semaphorin-3A: NYQNGKNNVPRLKLSYKEMLESNNVITFNGLANSSSYHTFLLDEERSRLYVGAKDHIFSFDLVNIKDFQKIVWPVSYTRRDECKWAGKDILKECANFIKVLKAYNQTHLYACGTGAFHPICTYIEIGHHPEDNIFKLENSHFENGRGKSPYDPKLLTASLLIDGELYSGTAADFMGRDFAIFRTLGHHHPIRTEQHDSRWLNDPKFISAHLISESDNPEDDKVYFFFRENAIDGEHSGKATHARIGQICKNDFGGHRSLVNKWTTFLKARLICSVPGPNGIDTHFDELQDVFLMNFKDPKNPVVYGVFTTSSNIFKGSAVCMYSMSDVRRVFLGPYAHRDGPNYQWVPYQGRVPYPRPGTCPSKTFGGFDSTKDLPDDVITFARSHPAMYNPVFPMNNRPIVIKTDVNYQFTQIVVDRVDAEDGQYDVMFIGTDVGTVLKVVSIPKETWYDLEEVLLEEMTVFREPTAISAMELSTKQQQLYIGSTAGVAQLPLHRCDIYGKACAECCLARDPYCAWDGSACSRYFPTAKRRTRRQDIRNGDPLTHCSDLHHDNHHGHSPEERIIYGVENSSTFLECSPKSQRALVYWQFQRRNEERKEEIRVDDHIIRTDQGLLLRSLQQKDSGNYLCHAVEHGFIQTLLKVTLEVIDTEHLEELLHKDDDGDGSKTKEMSNSMTPSQKVWYRDFMQLINHPNLNTMDEFCEQVWKRDRKQRRQRPGHTPGNSNKWKHLQENKKGRNRRTHEFERAPRSV
growth cone collapsing activity after PI-PLC treatment of the neurons ([1]; E13 chick DRG): not affected
